Laboratory results as given in paper PMC11055803, “ANCUT1, a novel thermoalkaline cutinase from Aspergillus nidulans and its application on hydroxycinnamic acids lipophilization” (Biotechnology Letters, 2024).

System: T1, CC(=O)Oc1ccc([N+](=O)[O-])cc1
T1 construct: native secreted enzyme purified from culture broth (ammonium sulfate, ultrafiltration, continuous elution electrophoresis, renatured with Triton X-100); 22 kDa, pI 6; no glycosylation detected
Assay: Lineweaver-Burk, p-nitrophenol release
Assay type: biochemical, Aspergillus nidulans
Conditions: Tris-HCl pH 9.0, 37 °C, substrate 0.5-2 mM
Excerpt: Lineweaver-Burk, p-nitrophenol release on ANCUT1

## ANCUT1 (Aspergillus nidulans FGSC A4)
  Km: 18.29 mM
  Vmax: 58800 µM/min
  kcat: 3.67 s⁻¹
  kcat/Km: 201 M⁻¹ s⁻¹
